From patent publication US20150139990A1 (DAINIPPON SUMITOMO PHARMA, published 2015)

What was measured:
human CD81 mutant D137E = molecular target: T1, human CD81 mutant D137E (human, UniProt P60033 1-236, limits assumed); assay: ELISA
T1 construct: as m30; not shown: C-terminal V5 and 6xHis tags
T1 sequence: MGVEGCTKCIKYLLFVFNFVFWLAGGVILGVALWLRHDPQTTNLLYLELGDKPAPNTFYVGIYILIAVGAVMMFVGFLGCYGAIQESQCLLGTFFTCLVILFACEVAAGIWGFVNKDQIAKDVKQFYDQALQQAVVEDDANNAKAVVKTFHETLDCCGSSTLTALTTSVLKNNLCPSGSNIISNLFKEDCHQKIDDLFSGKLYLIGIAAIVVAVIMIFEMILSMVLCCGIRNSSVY

[1] = molecular target: T2, human CD81 on CD81-expressing cells (Jurkat E6.1, human PBMC, Ramos) (human, UniProt P60033 1-236); assay: cell-based or functional assay
T2 sequence: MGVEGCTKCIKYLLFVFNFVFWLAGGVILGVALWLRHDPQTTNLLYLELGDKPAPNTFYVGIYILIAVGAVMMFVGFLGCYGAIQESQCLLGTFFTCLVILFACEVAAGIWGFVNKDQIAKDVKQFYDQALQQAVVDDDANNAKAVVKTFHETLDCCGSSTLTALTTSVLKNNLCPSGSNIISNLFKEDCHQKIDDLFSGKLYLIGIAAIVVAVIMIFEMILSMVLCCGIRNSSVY

human CD81 mutant A164T = molecular target: T3, human CD81 mutant A164T (human, UniProt P60033 1-236, limits assumed); assay: ELISA
T3 construct: as m30; not shown: C-terminal V5 and 6xHis tags
T3 sequence: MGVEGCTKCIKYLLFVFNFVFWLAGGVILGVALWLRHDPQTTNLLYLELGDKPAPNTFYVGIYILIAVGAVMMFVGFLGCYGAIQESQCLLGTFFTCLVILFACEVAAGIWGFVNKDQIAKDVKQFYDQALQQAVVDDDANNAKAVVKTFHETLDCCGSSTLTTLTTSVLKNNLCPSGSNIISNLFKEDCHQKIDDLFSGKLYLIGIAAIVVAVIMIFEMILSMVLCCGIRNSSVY

human CD81 mutant D137A = molecular target: T4, human CD81 mutant D137A (human, UniProt P60033 1-236, limits assumed); assay: ELISA
T4 construct: as m30; not shown: C-terminal V5 and 6xHis tags
T4 sequence: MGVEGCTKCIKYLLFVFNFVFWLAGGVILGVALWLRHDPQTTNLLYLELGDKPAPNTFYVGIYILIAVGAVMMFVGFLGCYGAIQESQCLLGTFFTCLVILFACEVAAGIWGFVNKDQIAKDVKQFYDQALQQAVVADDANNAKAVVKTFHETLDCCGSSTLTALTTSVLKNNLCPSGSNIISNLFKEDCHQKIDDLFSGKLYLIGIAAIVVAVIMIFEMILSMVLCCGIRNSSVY

human CD81 mutant V169A = molecular target: T5, human CD81 mutant V169A (human, UniProt P60033 1-236, limits assumed); assay: ELISA
T5 construct: as m30; not shown: C-terminal V5 and 6xHis tags
T5 sequence: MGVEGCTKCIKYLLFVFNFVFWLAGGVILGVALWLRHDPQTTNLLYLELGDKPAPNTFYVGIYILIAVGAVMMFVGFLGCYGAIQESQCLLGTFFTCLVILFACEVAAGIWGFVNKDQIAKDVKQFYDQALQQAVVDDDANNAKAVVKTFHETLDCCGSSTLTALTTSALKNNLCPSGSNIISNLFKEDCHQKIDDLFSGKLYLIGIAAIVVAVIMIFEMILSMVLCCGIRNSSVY

human CD81 mutant L165A = molecular target: T6, human CD81 mutant L165A (human, UniProt P60033 1-236, limits assumed); assay: ELISA
T6 construct: as m30; not shown: C-terminal V5 and 6xHis tags
T6 sequence: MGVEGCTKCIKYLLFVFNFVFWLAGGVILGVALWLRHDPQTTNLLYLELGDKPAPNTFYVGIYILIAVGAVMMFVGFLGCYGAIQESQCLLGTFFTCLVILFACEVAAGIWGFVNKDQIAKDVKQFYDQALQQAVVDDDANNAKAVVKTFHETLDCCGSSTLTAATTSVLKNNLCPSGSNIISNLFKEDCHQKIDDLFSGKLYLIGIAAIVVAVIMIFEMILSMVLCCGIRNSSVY

human CD81 mutant G158S = molecular target: T7, human CD81 mutant G158S (human, UniProt P60033 1-236, limits assumed); assay: ELISA
T7 construct: as m30; not shown: C-terminal V5 and 6xHis tags
T7 sequence: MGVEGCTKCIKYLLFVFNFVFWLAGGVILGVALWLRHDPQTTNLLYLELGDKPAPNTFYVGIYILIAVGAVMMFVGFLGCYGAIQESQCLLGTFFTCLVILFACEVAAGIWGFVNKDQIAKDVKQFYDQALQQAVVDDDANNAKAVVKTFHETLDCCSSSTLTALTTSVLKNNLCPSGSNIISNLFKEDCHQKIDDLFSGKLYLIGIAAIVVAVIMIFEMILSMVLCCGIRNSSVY

human CD81 mutant V135A = molecular target: T8, human CD81 mutant V135A (human, UniProt P60033 1-236, limits assumed); assay: ELISA
T8 construct: as m30; not shown: C-terminal V5 and 6xHis tags
T8 sequence: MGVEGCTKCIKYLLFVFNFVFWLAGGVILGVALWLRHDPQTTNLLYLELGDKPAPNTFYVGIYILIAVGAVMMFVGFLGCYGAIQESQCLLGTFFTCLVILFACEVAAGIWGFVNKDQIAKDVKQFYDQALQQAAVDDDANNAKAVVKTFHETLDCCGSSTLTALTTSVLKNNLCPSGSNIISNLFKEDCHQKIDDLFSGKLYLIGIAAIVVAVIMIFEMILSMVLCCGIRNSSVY

human CD81 mutant I194A = molecular target: T9, human CD81 mutant I194A (human, UniProt P60033 1-236, limits assumed); assay: ELISA
T9 construct: as m30; not shown: C-terminal V5 and 6xHis tags
T9 sequence: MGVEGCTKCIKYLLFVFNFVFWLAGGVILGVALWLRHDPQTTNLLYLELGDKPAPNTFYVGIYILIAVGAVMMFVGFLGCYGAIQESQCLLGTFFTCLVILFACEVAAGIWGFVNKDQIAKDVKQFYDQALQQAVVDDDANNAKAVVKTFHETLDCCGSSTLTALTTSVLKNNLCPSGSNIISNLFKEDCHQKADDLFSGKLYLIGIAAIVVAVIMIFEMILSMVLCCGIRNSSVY

human CD81 mutant T163A = molecular target: T10, human CD81 mutant T163A (human, UniProt P60033 1-236, limits assumed); assay: ELISA
T10 construct: as m30; not shown: C-terminal V5 and 6xHis tags
T10 sequence: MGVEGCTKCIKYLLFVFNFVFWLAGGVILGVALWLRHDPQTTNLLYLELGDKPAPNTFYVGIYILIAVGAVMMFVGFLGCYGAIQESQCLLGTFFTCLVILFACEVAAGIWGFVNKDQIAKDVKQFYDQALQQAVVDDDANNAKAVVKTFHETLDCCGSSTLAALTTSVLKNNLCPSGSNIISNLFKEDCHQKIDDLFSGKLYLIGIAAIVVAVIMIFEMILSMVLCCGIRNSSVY

Binder	relative binding affinity (human CD81 mutant D137E)	Jurkat chemotaxis (% of control IgG4) at 0.001 µg/mL [1]	Jurkat chemotaxis (% of control IgG4) at 0.01 µg/mL [1]	Jurkat chemotaxis (% of control IgG4) at 0.1 µg/mL [1]	Jurkat chemotaxis (% of control IgG4) at 1 µg/mL [1]	Jurkat chemotaxis (% of control IgG4) at 10 µg/mL [1]	relative binding affinity (human CD81 mutant A164T)	relative binding affinity (human CD81 mutant D137A)	relative binding affinity (human CD81 mutant V169A)	relative binding affinity (human CD81 mutant L165A)	relative binding affinity (human CD81 mutant G158S)	relative binding affinity (human CD81 mutant V135A)	relative binding affinity (human CD81 mutant I194A)	relative binding affinity (human CD81 mutant T163A)
002-A07 IgG4 antibody (antibody, human IgG4 S228P, lambda light chain) heavy: not shown light: QSVLTQPPSASGTPGQRVTISCTGSTSNIGAGYDTHWYQQLPGTAPKLLIYGNSNRPSGVPDRFSGSKSGTSASLAISGLRSEDEADYYCQSYDTNLSVWVFGGGTKLTVLGQPKAAPSVTLFPPSSEELQANKATLVCLISDFYPGAVTVAWKADSSPVKAGVETTTPSKQSNNKYAASSYLSLTPEQWKSHRSYSCQVTHEGSTVEKTVAPTECS	< 20%	90%	93%	21%	-2%	3%	< 20%	< 20%	< 20%	< 20%	< 20%	< 20%	< 20%	< 20%
003-D07 (antibody, human IgG4 S228P, lambda, V domains shown, IgG4 S228P) VH: EVQLLESGGGLVQPGGSLRLSCAASGFTFSSNYMSWVRQAPGKGLEWVSYISSSSTYTDYADSVKGRFTISRDNSKNTLYLQMNSLRAEDTAVYYCARYSYDRDNFDYWGQGTLVTVSS VL: QSVLTQPFSASGTPGQRVTISCTGSTSNIGAGYDTHWYQHLPGTAPKLLIYGNSNRPSGVPDRFSGSKSGTSASLAISGLRSEDEADYYCQSYDTNLSVWVFGGGTKLTVLG		87%	79%	42%	-5%	-9%	< 20%	< 20%	< 20%	< 20%	< 20%	< 20%	< 20%	
002-A07 S115A (antibody, human IgG4 S228P, lambda, V domains shown, IgG4 S228P; glycosylation site mutant of 002-A07 VL) VH: EVQLLESGGGLVQPGGSLRLSCAASGFTFSSNYMSWVRQAPGKGLEWVSYISSSSTYTDYADSVKGRFTISRDNSKNTLYLQMNSLRAEDTAVYYCARYSYGRDNFDYWGQGTLVTVSS VL: QSVLTQPPSASGTPGQRVTISCTGSTSNIGAGYDTHWYQQLPGTAPKLLIYGNSNRPSGVPDRFSGSKSGTSASLAISGLRSEDEADYYCQSYDTNLAVWVFGGGTKLTVLG	< 20%	82%	78%	32%	-4%	-9%	< 20%	< 20%	< 20%	< 20%	< 20%	< 20%	< 20%	< 20%
002-A07 N113Q (antibody, human IgG4 S228P, lambda, V domains shown, IgG4 S228P; glycosylation site mutant of 002-A07 VL) VH: EVQLLESGGGLVQPGGSLRLSCAASGFTFSSNYMSWVRQAPGKGLEWVSYISSSSTYTDYADSVKGRFTISRDNSKNTLYLQMNSLRAEDTAVYYCARYSYGRDNFDYWGQGTLVTVSS VL: QSVLTQPPSASGTPGQRVTISCTGSTSNIGAGYDTHWYQQLPGTAPKLLIYGNSNRPSGVPDRFSGSKSGTSASLAISGLRSEDEADYYCQSYDTQLSVWVFGGGTKLTVLG	< 20%	104%	99%	37%	13%	12%	< 20%	< 20%	< 20%	< 20%	< 20%	< 20%	< 20%	< 20%
002-A07 N113G (antibody, human IgG4 S228P, lambda, V domains shown, IgG4 S228P; glycosylation site mutant of 002-A07 VL) VH: EVQLLESGGGLVQPGGSLRLSCAASGFTFSSNYMSWVRQAPGKGLEWVSYISSSSTYTDYADSVKGRFTISRDNSKNTLYLQMNSLRAEDTAVYYCARYSYGRDNFDYWGQGTLVTVSS VL: QSVLTQPPSASGTPGQRVTISCTGSTSNIGAGYDTHWYQQLPGTAPKLLIYGNSNRPSGVPDRFSGSKSGTSASLAISGLRSEDEADYYCQSYDTGLSVWVFGGGTKLTVLG	< 20%	99%	101%	38%	13%	7%	< 20%	< 20%	< 20%	< 20%	< 20%	< 20%	< 20%	< 20%
002-A07 N113S (antibody, human IgG4 S228P, lambda, V domains shown, IgG4 S228P; glycosylation site mutant of 002-A07 VL) VH: EVQLLESGGGLVQPGGSLRLSCAASGFTFSSNYMSWVRQAPGKGLEWVSYISSSSTYTDYADSVKGRFTISRDNSKNTLYLQMNSLRAEDTAVYYCARYSYGRDNFDYWGQGTLVTVSS VL: QSVLTQPPSASGTPGQRVTISCTGSTSNIGAGYDTHWYQQLPGTAPKLLIYGNSNRPSGVPDRFSGSKSGTSASLAISGLRSEDEADYYCQSYDTSLSVWVFGGGTKLTVLG	< 20%	99%	101%	40%	13%	12%	< 20%	< 20%	< 20%	< 20%	< 20%	< 20%	< 20%	< 20%
